The source of these data is the RNAGym collection of RNA variant scans (doi:10.7554/elife.90254).

Sequences and labels used below:
B1: LINE1-full (parent)
chain: UACGUAGGUGGUUUUCCCCUGAUAGUGCUAAGGGGGCCUGGAAGUUUGGACUGGGCAGAGCUCAACACAGCGUGGCAAAGUGGCUGUGGCUAGACUGCCUCUCUGGAUUCCUCGUCACUCAGCAGGGCAUCUCUGAGAGAAAUGCC

Variants of B1 are the subject of this data set. Kind of data set: self-cleavage, relative activity (ratio to wild type); higher = more cleavage; in vitro, sequencing; the parent is a self-cleaving ribozyme.
U12G U109C: the self-cleavage came to 1.57.

Turning to U12C C111U, the self-cleavage turned out to be 1.74.

On to U12G C120A, for which the self-cleavage turned out to be 1.49.

As to U13A C131U, the self-cleavage was 1.15.

Consider U12G A121U, for which the self-cleavage came to 1.31.

As for U12G U47C, the self-cleavage turned out to be 1.04.

U12C G55A: the self-cleavage was 0.64.

As for U13A A42G, the self-cleavage was determined as 1.26.

For U12C U134A, the self-cleavage is 1.22.

On to U12G G93A, for which the self-cleavage stood at 0.

On to U12G A43U, for which the self-cleavage turned out to be 0.81.

As to U12G A43C, the self-cleavage came out at 1.02.

For U12G A43G, the self-cleavage came to 1.41.

For the variant U13C G80A, the self-cleavage amounted to 1.48.

For U12G A129C, the self-cleavage turned out to be 1.1.

As to U12G A129G, the self-cleavage worked out at 1.14.

Turning to U12G A65U, the self-cleavage was determined as 0.23.

With U13A U47G, the self-cleavage is 0.38.

As for U13A U47A, the self-cleavage came to 1.01.

On to U13C U52G, for which the self-cleavage came out at 1.3.

As for U13A U14A, the self-cleavage is 1.14.

For U13A U14C, the self-cleavage stood at 0.46.

U13C G55C: the self-cleavage amounted to 0.25.

For U12C G139A, the self-cleavage came to 0.94.

Take U12G C56U: the self-cleavage amounted to 0.22.

In the case of U13C U73A, the self-cleavage was determined as 1.39.

For U13C U73G, the self-cleavage is 0.91.

For U13C U73C, the self-cleavage came out at 1.17.

On to U12C U108C, for which the self-cleavage stood at 1.66.

Take U12C U108A: the self-cleavage amounted to 1.25.

U13C C71U: the self-cleavage stood at 0.58.

Take U13C C71A: the self-cleavage was 0.24.

For the variant U13A U143A, the self-cleavage is 0.84.

U13A U143G: the self-cleavage was determined as 1.01.

In the case of U13C A124G, the self-cleavage is 1.04.

Turning to U13C G139U, the self-cleavage turned out to be 1.19.

For U13A A30U, the self-cleavage stood at 0.7.

Regarding U13C A43C, the self-cleavage was determined as 0.84.

Take U13C A43G: the self-cleavage came out at 0.99.

Turning to U13C A43U, the self-cleavage stood at 1.29.

For U12C U52A, the self-cleavage was 1.41.

Take U12G U23A: the self-cleavage was found to be 0.85.

Regarding U13A U109C, the self-cleavage was 1.17.

Consider U13C C116U, for which the self-cleavage was found to be 0.7.

Turning to U13C C116A, the self-cleavage was 1.15.

As for U13A C98G, the self-cleavage turned out to be 0.09.

As for U13C G21U, the self-cleavage amounted to 1.

U13C G21A: the self-cleavage turned out to be 0.94.

Turning to U13A U62A, the self-cleavage was determined as 0.06.

Regarding U13A U62C, the self-cleavage came out at 0.03.

For the variant U13C C84U, the self-cleavage turned out to be 0.11.

With U12G U39C, the self-cleavage was determined as 1.61.

In the case of U12C U73A, the self-cleavage is 1.75.

Consider U12C U73C, for which the self-cleavage amounted to 1.65.

Regarding U12C G126A, the self-cleavage is 1.73.

Take U13C A121G: the self-cleavage worked out at 1.52.

For the variant U13C A121U, the self-cleavage stood at 1.26.

Take U13C A121C: the self-cleavage turned out to be 1.34.

Take U12G A22C: the self-cleavage was 1.68.

Turning to U12G G72A, the self-cleavage turned out to be 0.9.

As to U12C U112C, the self-cleavage was found to be 1.26.

On to U13A A92G, for which the self-cleavage turned out to be 0.12.

With U13A U96C, the self-cleavage turned out to be 0.1.

For the variant U12G G35A, the self-cleavage turned out to be 0.89.

As to U13A A79U, the self-cleavage was determined as 0.96.

On to U12G A77G, for which the self-cleavage amounted to 1.41.

For U13C A140G, the self-cleavage worked out at 1.23.

Turning to U12C U81C, the self-cleavage is 1.11.

Turning to U12C U81A, the self-cleavage was 1.

Regarding U12G U104C, the self-cleavage worked out at 1.48.

On to U12C U20C, for which the self-cleavage turned out to be 1.24.

In the case of U13C G126U, the self-cleavage was 1.2.

For the variant U12C U91C, the self-cleavage was 0.92.

For the variant U13A A107U, the self-cleavage turned out to be 1.74.

For the variant U13A A107G, the self-cleavage turned out to be 1.11.

For U12G U85C, the self-cleavage was found to be 0.4.

On to U12C G32A, for which the self-cleavage was determined as 1.54.

Take U12C C18U: the self-cleavage was 1.28.

In the case of U12C C18G, the self-cleavage stood at 2.1.

For the variant U13C G35A, the self-cleavage was determined as 1.13.

As to U12C C28U, the self-cleavage amounted to 0.74.

As for U13C A59G, the self-cleavage turned out to be 0.13.

Regarding U13C A59U, the self-cleavage is 0.86.

For U12G U29C, the self-cleavage worked out at 1.02.

As to U13C A129C, the self-cleavage turned out to be 1.33.

With U13C U15C, the self-cleavage came out at 1.03.

For U12C C103A, the self-cleavage is 1.01.

On to U12G C113U, for which the self-cleavage amounted to 0.66.

In the case of U12C U143C, the self-cleavage was determined as 1.46.

In the case of U12G U52A, the self-cleavage is 1.22.

As for U12G U52C, the self-cleavage is 0.79.

For the variant U13A U91C, the self-cleavage was determined as 0.89.

Consider U13C G97A, for which the self-cleavage is 0.08.

Take U12C U29C: the self-cleavage was determined as 1.44.

Regarding U12C U29A, the self-cleavage was determined as 1.16.

Turning to U13A G48A, the self-cleavage turned out to be 1.01.

Take U13C G53U: the self-cleavage is 1.11.

As to U13C G53C, the self-cleavage came to 2.02.

On to U13C A65G, for which the self-cleavage turned out to be 0.12.

For U12C U62C, the self-cleavage worked out at 0.09.

Turning to U12C U62A, the self-cleavage was 0.13.

Regarding U13A C56A, the self-cleavage was 0.05.

For U12C G86A, the self-cleavage worked out at 0.14.

As for U12G G33A, the self-cleavage turned out to be 1.47.

Take U12G A138U: the self-cleavage amounted to 1.02.

Consider U13C C51U, for which the self-cleavage was 0.97.

As for U12C G82A, the self-cleavage is 1.68.

As for U13C G75A, the self-cleavage is 1.16.

As for U13C C128A, the self-cleavage was 0.79.

Take U13C C128U: the self-cleavage came out at 0.78.

As to U12G U45C, the self-cleavage was found to be 1.48.

U12C G40U: the self-cleavage came out at 1.2.

For U13C U62G, the self-cleavage stood at 0.

Regarding U13C U62C, the self-cleavage is 0.09.

As to U13C U62A, the self-cleavage was found to be 0.12.

On to U12G A69U, for which the self-cleavage came out at 0.08.

In the case of U13C A64C, the self-cleavage amounted to 0.45.

With U13C A64U, the self-cleavage came to 0.44.

As to U13C G106A, the self-cleavage was found to be 1.51.

Turning to U12G A107G, the self-cleavage was found to be 1.58.

Take U12G A107U: the self-cleavage stood at 0.98.

As for U13A A69C, the self-cleavage is 0.08.

Consider U13A A69U, for which the self-cleavage turned out to be 0.01.

U13A A69G: the self-cleavage is 0.25.

With U13A U26A, the self-cleavage was 0.78.

Consider U13A U26C, for which the self-cleavage came to 1.19.

In the case of U13A C37U, the self-cleavage came to 0.72.

For U13C G49A, the self-cleavage came out at 0.88.

For the variant U13A A50G, the self-cleavage was 0.76.

For the variant U13C A142U, the self-cleavage was found to be 1.09.

For the variant U13C G36A, the self-cleavage is 1.2.

In the case of U12G C61A, the self-cleavage worked out at 0.14.

As to U13C A138C, the self-cleavage stood at 1.13.

U13C A138U: the self-cleavage is 1.31.

On to U13C U47C, for which the self-cleavage was found to be 1.56.

As for U12C U26G, the self-cleavage turned out to be 0.58.

Regarding U12C G25A, the self-cleavage was 1.18.

Regarding U12G G80A, the self-cleavage turned out to be 1.64.

As for U13C A31U, the self-cleavage was found to be 1.1.

Regarding U13C C66U, the self-cleavage came to 0.14.

For the variant U12C G49U, the self-cleavage is 1.35.

Consider U12C U13C, for which the self-cleavage was 1.2.

On to U12C U13A, for which the self-cleavage turned out to be 0.27.

With U13C C18U, the self-cleavage was found to be 1.57.

Take U13C G122U: the self-cleavage turned out to be 1.02.

Regarding U13C G122A, the self-cleavage amounted to 1.5.

As to U13A G82U, the self-cleavage was determined as 0.65.

As for U13A C118U, the self-cleavage amounted to 0.52.

For the variant U12C U109C, the self-cleavage was 1.48.

On to U13C A78G, for which the self-cleavage stood at 0.99.

U13C A78U: the self-cleavage was determined as 1.81.

As for U13A, the self-cleavage worked out at 0.98.

In the case of U13C, the self-cleavage worked out at 1.15.

As to U13C G89A, the self-cleavage worked out at 0.04.

U12G G97U: the self-cleavage worked out at 0.07.

As for U12C G122U, the self-cleavage stood at 1.04.

Take U12C G105A: the self-cleavage worked out at 1.54.

On to U12C C146G, for which the self-cleavage amounted to 1.03.

For U13A C111U, the self-cleavage was 0.89.

On to U13A U73A, for which the self-cleavage worked out at 1.04.

Regarding U13A U73C, the self-cleavage was found to be 0.94.

U13C G135A: the self-cleavage is 0.75.

In the case of U13C C145A, the self-cleavage worked out at 1.6.

Take U12C G74A: the self-cleavage worked out at 1.

On to U12C C71U, for which the self-cleavage came to 0.9.

For the variant U13C G41A, the self-cleavage came to 1.81.

Regarding U12G U130A, the self-cleavage is 1.65.
